# Experimental data taken from the DeepSol protein solubility set.
# Test: soluble on expression in E. coli; label from the status in PepcDB or PDB records
row,Sequence,soluble on expression in E. coli
1,NNMHHLAVVGARDSTSYTQQSLEFLLSNDKSKYLTIVSGLAQGADAMAHQIALKYNLPTIAVLAFGHQTHYPKSTLALRNKIEEKGLVISEYPPHTPIAKYRFPERNRIISGLSKGVLITEAKEQSGSHITIDFALEQNRNVYVLPGSMFNPMTKGNLLRIQEGAKVVLNANDIFEDYYI,not soluble
2,ERFAREPMAAGHRMWQMAGLKAQRAQTDVNNKKAAFDAAAKEKSDADVALSSALERRKQKENKEKDAKAKLDKESKRNKPGKATGKGKPVNNKWLNNAGKDLGSPVPDRIANKLRDKEFKSFDDFRKKFWEEVSKDPELSKQFSRNNNDRMKVGKAPKTRTQDVSGKRTSFELHHEKPISQNGGVYDMDNISVVTPKRHIDIHRGK,soluble
3,MSSQPKLRILCLHGYRQCDQSFRQKTGSTRKLVKSLAEFEFVNGVHSVAVDEHVDSSRAWWFSNNEAMSFSSRESTEVAVGFEESVAAVVKFIEENGPFDGLLGFSQGASMVHLLIAKAQLGEIKLPGIRFAIFFSGFLSLSSKHDSLTLLRIKEFPSMHVFGDADEIVARPKSEKMADMFDVEPLRIAHDGGHVVPSMSKHKEKIAGFMREQLDRKIENN,not soluble
4,MCMKQSLFGRVRDAILADFHNVLDEKERKNPIAMLNQYLRDSEREITKIEKLIQRHKTLKSNFARELEQARYFVNKRSKQALIAQEAGELQLHERALEEVAYYEGQVTRLEEMYAGVVEQIDELERRLSEMKNKLKEMHAKRMELMARENMAHANRRMNTAMHKMDENNPFLRFEEIEEHIRDLETRMNEEHERDTFDMKIAKLEREMKEKNDVSLTKELTKLEHHHHHH,not soluble
5,MRVASVRWFTPPTRPRPAPLFFGQERALRALEAAFLHRGHGYLVGPSGLGKRARLLAFLEGRAFPKEELVYLPLGEEAFPLLLPEGEGRALVEGVEALFAEFTPGLFREKGFLYAKNLVESRHEREAEALLQTLAQEAKAHGFALAEEEGGFTLTGQGPLPPELSAKLEETVLAYVEVRQRAQAEVAALRRSFAERLLQPRVEGLKARFPEAARYLDWLLESLLRAAALEEEVEGEALLPRLLVEGGTRVVYEPNPTPERLFGHLEYEVREGVLTTHLGLLRPGALMRAAGGVLVLEAHRVLELGSYPLLKRSLATGEIEPLAPRPEVRGPRLQPAPLKAQVFLVGPPEVIALLEEDEEFLELFPFRVEFNPEMPYTEAHVAHLGGFLEAQGVRLLPEGLAALADEARRMAGHQERLDARIYRLLDLAREAARYQDPVGREGVERALKAREDRFALEQELFLKDVEEGVVALEVTGERVGEVNGLVVLEGPLPTGRPVRITAQAGPGREGILSIDREVGLGGQVFHKAVLTLAGYLRGTYAQLGALSATVSLVFEQSYGSLEGDSAGLAELLAVLSAISGLPLRQDLAVTGAVDQTGRVLAVGRVAEKVEGFFRVCQTLGLTGTQGVVLPKANLPHLTLRREVVEAVEEGVFHLFAVEEVDEAVELLFGRRAYWVHEKVREALEHFQKLENGDGEKG,soluble
6,MSLDNNIKIIPFGGVRENGKNMYAVEIEDQIFILDTGLKYPENELMGIDVVIPDWEYLREHKDKIVGVFLTHGHADSIGALPYFLMDFNVPVFGSEMTIALAKLAVKNHKEVKKFNDFHVVDASTAIDFNDVTVSFFQTTHTIPETLGVVLETKAGNIVYTGDFKFDQTAKKGYQTDLARLAEIGSQGVLALLSDSAGAGITGASAREQDIGDYIKETFKYQNGRIIVASVASNIMRVQQIINAAVAVGRKIVLSGKDIEQIIDTAMSLGKLHLPDDLFISRKEAEKLEPNQVVILETGKMGEPIKSLQQIANGDNPNLQLTSTDLVFVTTTPSYAQETEVQKTKDMIYRTGAEVKFISDDLNPSGHANQNDEQLMLNFMKPKFFIPIQGEYRLLDRHAELAEEVGIPKENIFLVNKGDVLTYKNGKFHVGEHIDVSNTMIDGTGVGDIGNIVLRDRRVLSEDGIFVVVATIDRKKKKIVARPQITSRGFVFVKTNRQLMQQSADLVEKIVQENLDQKEFDWSHLKQDVRDKLNRFLFDQTKRHPVILPVIMEINQHQKKIKNEGHHHHHH,soluble
7,MATLATKKATLVAALKDLQRVTVAFSGGIDSTLVLKMALDVLGRDNVTAVVANSELFTDEEFDKAMSLAEELGANVQGTTLDYLSDDHIKNNTPDSWYYAKKMFYSRLNDIAANNGSAAVLDGMIKNDENDYRPGLKARSEAGARSLLQEADFFKTDVRALAQELGLTNWNKVASCSVSSRFPYGTTLTHDNIAQVMAAEKYLRSLGFPTVRVRFHNDIARIELPEARIGDFLVFNDRVNRQLQSLGFRYVTLDLGGFRSGRMNDTLTKAQLATFA,not soluble
8,MSADEFILQQKVHALYSNHRSWLQRWLYRKLGNACDAADLVQDTFISVITGGYADDIREPKPFLATIAGRLVAHRWRRNQLETAYLEALAALPVELMPSPEAHVLALEALLEIDRALDGLPTRVKEAFLLAHLEELSYAQIAERLNVSTSSVKQYLTRANRQCLFALSV,not soluble
9,MKNIKKNQVMNLGPNSKLLKEYKSQLIELNIEQFEAGIGLILGDAYIRSRDEGKTYCMQFEWKNKAYMDHVCLLYDQWVLSPPHKKERVNHLGNLVITWGAQTFKHQAFNKLANLFIVNNKKTIPNNLVENYLTPMSLAYWFMDDGGKWDYNKNSTNKSIVLNTQSFTFEEVEYLVKGLRNKFQLNCYVKINKNKPIIYIDSMSYLIFYNLIKPYLIPQMMYKLPNTISSETFLK,soluble
10,MLVLGGISLFLFMVKQNEKAMLNQEKERAAVVLADNETRVLFFYKDTCADCQKVYPTVYEEDQGENNIVFINLNQPKNRHYIKTYTLEKVPTFVTPKRRYVGTDTRKIQQLIAENNDERSEDLEHHHHHH,not soluble
11,MGSDKIHHHHHHMESAKDITGRIFNIQKYSIYDGDGVRTLIFMKGCNIRCPWCANPEGIRRAYQILFSPDKCLHCGKCAEACPRGIHTLIADEYGSRFHHIDRTVQCTGCRKCEAACPSNALDIVGKDMTVAELMAVIMQDYSFYQSSGGGVTLSGGEVSLQTDFAVALLQACKQKMINTAVETQGTTSISHYDQLAAVTDMFLFDIKHIDTNQHKALFGIGNENIRRNLEHLVELGANIVIRMPLVRGYNDSYDAIMGAIHYVQKLAKRGNVRRIDILPYHQLGRKKYERLGMIYPIKADPSYNEEELNRLDAFFDEFDFDIRLVRH,not soluble
12,DFEDVHIAEARVDVPSTWRDQIVNTNAVATETHPLKCAEVETQTGSKDNQGTQTDDAGGGRPPSPSKVQASGVADFMAKVEGMVAGELVKATEEHEVLEPFTRAADDEQEPATCIHYLSPFQQDAA,not soluble
13,MKSHERGRVILVIDDTDCGRVAAERLVFMARAGFRGDVFVVFGKDIEISPIASYEKEMKIYTSLRVKASKFVEFYRERLEEAGLEVKQVKIILGNVSEEVLRLEKLLNPDLIVFGMEKRGFLKRLLRGDPYKEIIYETKAPVMVCKAGYERKDVDYEKIRCAKCVMG,not soluble
14,MGSDKIHHHHHHLCRRLDGLNPNQQALCAENPFSIPFVARGVREAIRECENKFKFERWNCSSRDEVTETRHGKFQDILGKTLRSANKEAAFLNAIMAASIVHSITKGCNTGNLTECGCDSKPGMQRYQAESDPSMSRDQFSWGGCSDNVPHGIRYAKKFLDDWETAQFDKTKNVAHLVRRHNNFVGREAIAQNIRRQCRCHGVSGSCEFKTCWLQMQKFSQVSDLLKKRYDHFAVQVTRKATKRLRRKERTERKIPLRGNEMAYVHRSPSYCEKNLTAGILGTSGRECIHNSYSSESCDLLCCGRGYNTRLEIRQTQCECKFVWCCEVKCKTCTEEVAVHTCK,not soluble
15,MDVSYLLDSLNDKQREAVAAPRSNLLVLAGAGSGKTRVLVHRIAWLMSVENCSPYSIMAVTFTNKAAAEMRHRIGQLMGTSQGGMWVGTFHGLAHRLLRAHHMDANLPQDFQILDSEDQLRLLKRLIKAMNLDEKQWPPRQAMWYINSQKDEGLRPHHIQSYGNPVEQTWQKVYQAYQEACDRAGLVDFAELLLRAHELWLNKPHILQHYRERFTNILVDEFQDTNNIQYAWIRLLAGDTGKVMIVGDDDQSIYGWRGAQVENIQRFLNDFPGAETIRLEQNYRSTSNILSAANALIENNNGRLGKKLWTDGADGEPISLYCAFNELDEARFVVNRIKTWQDNGGALAECAILYRSNAQSRVLEEALLQASMPYRIYGGMRFFERQEIKDALSYLRLIVNRNDDAAFERVVNTPTRGIGDRTLDVVRQTSRDRQLTLWQACRELLQEKALAGRAASALQRFMELIDALAQETADMPLHVQTDRVIKDSGLRTMYEQEKGEKGQTRIENLEELVTATRQFSYNEEDEDLMPLQAFLSHAALEAGEGQADTWQDAVQLMTLHSAKGLEFPQVFIVGMEEGMFPSQMSLDEGGRLEEERRLAYVGVTRAMQKLTLTYAETRRLYGKEVYHRPSRFIGELPEECVEEVRLRATVSRPVSHQRMGTPMVENDSGYKLGQRVRHAK,soluble
16,MNFNKLKFGATIGIIGGGQLGKMMAQSAQKMGYKVVVLDPSEDCPCRYVAHEFIQAKYDDEKALNQLGQKCDVITYEFENISAQQLKLLCEKYNIPQGYQAIQLLQDRLTEKETLKSAGTKVVPFISVKESTDIDKAIETLGYPFIVKTRFGGYDGKGQVLINNEKDLQEGFKLIETSECVAEKYLNIKKEVSLTVTRGNNNQITFFPLQENEHRNQILFKTIVPARIDKTAEAKEQVNKIIQSIHFIGTFTVEFFIDSNNQLYVNEIAPRPHNSGHYSIEACDYSQFDTHILAVTGQSLPNSIELLKPAVMMNLLGKDLDLLENEFNEHPEWHLHIYGKSGRKDSRKMGHMTVLTNDVNQTEQDMYAKFEGSN,soluble
17,LINETSRRLNQRLTLTDTMNDLAVRMAESFQAEEVGFFHIDHFENLTLLPGSTAFFKEAKPSDFYNELKEKLYEGEKGVFIGNGQSVFGKAGYGSLMAAPMIQNDRLLGFAVLLKQELYAFTFEMYKLFQALIHHATLAVTNSMLRDRLE,soluble
18,DDSAVTLFIPGYAGNRFSFGGMLQRFTAGGIANKSLVVMIDRHNHPHVTGELDAYRPMVQLIFATPRVAVRQQAAGVLAVVQYLIAHEHVQTINLVAHSMGGVVLFQYLTTAAKLVNLPEVRKVVTIGAPFNDSEVGQNTYPIENHPLTATGPTKTTPVYNYFLRTLQRLPNTISYLNIAGNIGDAAQSDGAVALNSALSLRFLLRPTRDQYQEFVVHGKNARHSRLHENYEVDRQIVQFFISRSHKKGCW,not soluble
19,MAHHHHHHMSDAFEARMSAMRARLSSLCHTVEEQEVEQQQQRRSFEHRYFVEARAAGSAATPAATKPITSTATPPSSAPISRPVTSKSQVPRTDGISERDVNQVHSASRKDAAFGHHFGTSSPSASITRARAAKPGSGVNAMLQLARYHASGSWSEAVVTKDIVRFTGGRSSPVPKAPATIPPEAFAVNTGQDTTDSSPVPLMPCGVAGLHSYGFRERLPSPRRPTASLAANTVDLASRNGEGRTSQNTPREESCITAADTTIVDTMHADEATSFDAFRVVQERLRQKMMQLTTTSPHSVVPLSTRGAPAEFAVSDDATAPREELPHRGLTASRAVSDVDGSSPSPRPPPGTRAETATPTRSPDKDESSSHETAPLPQTTPRYQHGQGDTWTDVEVLPATTEPDTENATEARLFTHGSLHDSVVGSGDETTAVSREWQWSRCGVPSTKARTANVPRGVFDPTVRHVRVSRMPSSDAQLNPAAGEQRADSREYRRSPEAATAGRAHSDRGRSGRTTASIQHGVSSAPRRSGSRHAPSSTSAARWSATREGSVSTAARSRKSAPKPAARPKPISLNVEATILCPVTGAELFALLRMRGLIDSEGDTAEYRLPPVRCHRLYVTAEEHRQLKLLRQSLHSLVAEEQHQDIPSYQRFTVSARSRNAEFAPPPPVLRYMDV,not soluble
20,MNERKKSIDELLSDLGVLEEAPVEVELKESGTPEAQGDPRAFLEEFLGGLLLLLDPGHRLEVRVEGETLKAEVKGGDLGRFIGKEGRTLRAVEHLARVVLARRFGTGYRLVLDAAGYRSRAEARIRRLAEEAALTVAMTGEPLHLPPMPPGERRIVHMLLKNHPRVTTESQGEGEERHVVVYPRREAQG,soluble
